Values joined by “and” are separate entries in the source; they are usually repeats but may differ in a detail not shown here. Equal values may be shown once.

In one data set the target is p53 (94-393) WT, thermostable deltaN (Homo sapiens) (UniProt P04637). In words: fluorescence polarization. The settings on record: FP at 25 °C, 2.5 nM FAM-dsDNA, 200 or 275 mM NaCl, 20 mM bis-tris propane pH 6.8, 5% glycerol, 0.1 mg/ml BSA, 0.5 mM TCEP, 10 min; mean of n = 2.
Chain of p53 (94-393) WT, thermostable deltaN (Homo sapiens) (P04637 94-393, stated change not applied): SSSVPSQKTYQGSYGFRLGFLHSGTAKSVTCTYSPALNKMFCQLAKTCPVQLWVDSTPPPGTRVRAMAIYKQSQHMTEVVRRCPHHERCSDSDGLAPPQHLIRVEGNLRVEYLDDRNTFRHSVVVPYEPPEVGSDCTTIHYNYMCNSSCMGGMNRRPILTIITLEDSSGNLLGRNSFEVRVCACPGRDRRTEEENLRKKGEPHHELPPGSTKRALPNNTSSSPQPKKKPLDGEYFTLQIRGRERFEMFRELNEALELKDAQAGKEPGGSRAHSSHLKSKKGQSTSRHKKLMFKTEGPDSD
On to “ATGATGATAGACAAGTCAGGACTTAACTATATGATG (double strand) [MDM2 RE]”, for which the Kd is 20 nM and 97 nM.
“ATGATGATAGGCATGTCCCAACATGCCCATATGATG (double strand) [APBB2 RE]”: the Kd was 10 nM and 40 nM.
Consider “ATGATGATGAACATGCCCCAGCATGTTGATATGATG (double strand) [p21_8/13]”, for which the Kd was 33 nM and 99 nM.
Same read-out and setting: the result for “ATGATGATGAACATGTCCCAACATGTTGATATGATG (double strand) [p21 RE]” reads 26 nM and 23 nM.
On the same count and under the same terms, the result for “ATGATGATGAACGTGTCCGGACAGGTCGATATGATG (double strand) [NOXA_3/13]” reads 23 nM and 60 nM; that for “ATGATGATGAGCGTGTCCGGGCAGGTCGATATGATG (double strand) [NOXA RE]”, 45 nM and 446 nM; that for “ATGATGATGGGCAGGTCCGGACTTGTCGATATGATG (double strand) [BAX_8/13]”, 8 nM and 40 nM.
Take “ATGATGATGGGCATGTCTGGGCATGTCTATATGATG (double strand) [3Q05 pdb RE]”: the Kd was found to be 6 nM. In other words, the single-digit nanomolar range.

The same data set, now with this note: inosine (written as G): strand 1 nt 21 (RE position 13); strand 2 nt 21 (opposite RE position 8); FP at 25 °C, 2.5 nM FAM-dsDNA, 200 or 275 mM NaCl, 20 mM bis-tris propane pH 6.8, 5% glycerol, 0.1 mg/ml BSA, 0.5 mM TCEP, 10 min; mean of n = 2.
Turning to “ATGATGATGGGCAGGCCCGGGCTTGTCGATATGATG (double strand) [BAX_8/13 I/C]”, the Kd is 9 nM and 83 nM.

The same data set, now with this note: inosine (written as G): strand 2 nt 21 and 11 (opposite RE positions 8 and 18); supplement also prints I at strand 1 nt 21 (RE position 13), Table 1 prints G there; FP at 25 °C, 2.5 nM FAM-dsDNA, 200 or 275 mM NaCl, 20 mM bis-tris propane pH 6.8, 5% glycerol, 0.1 mg/ml BSA, 0.5 mM TCEP, 10 min; mean of n = 2.
“ATGATGATAGGCATGCCTAGGCATGCCTATATGATG (double strand) [6FJ5_8/18 I/C]”: the Kd is 8 nM and 58 nM.

For the origin of these results see paper PMC7817693.
